# Assay results published in paper PMC5941314, “Structural insights into the nanomolar affinity of RING E3 ligase ZNRF1 for Ube2N and its functional implications” (Biochemical Journal, 2018).
# T1: ZNRF1^CTD (C-terminal domain of ZNRF1, residues 139–227) (UniProt Q8ND25 139-227)
# T1 construct: ZNRF1, RING E3 ubiquitin ligase, residues 139-227 of the full-length protein (ZnF and RING domains); also called ZNRF1 C-terminal domain; ZRNF1^CTD; source: E. coli Rossetta2 (DE3), purified (HisTrap, SEC)
# T1 sequence (looked up): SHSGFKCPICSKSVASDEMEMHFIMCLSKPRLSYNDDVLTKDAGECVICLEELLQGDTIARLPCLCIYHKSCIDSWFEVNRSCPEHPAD
# T2: ZNRF1 full-length (UniProt Q8ND25 1-227)
# T2 construct: ZNRF1, RING E3 ubiquitin ligase, full-length (ends at residue 227); The C-terminal strep-tag II is called non-cleavable; also called ZNRF1^FL; source: E. coli Rossetta2 (DE3), purified (HisTrap, StrepTrap HP, desalted); not shown: strep-tag II, C-terminal, kept
# T2 sequence (looked up): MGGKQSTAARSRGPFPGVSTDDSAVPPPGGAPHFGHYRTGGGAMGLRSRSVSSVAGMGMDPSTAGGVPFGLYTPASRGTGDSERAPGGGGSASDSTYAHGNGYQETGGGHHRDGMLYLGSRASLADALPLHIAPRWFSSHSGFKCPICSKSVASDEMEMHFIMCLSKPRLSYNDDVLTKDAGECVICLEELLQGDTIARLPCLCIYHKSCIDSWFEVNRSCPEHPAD
# B1: Ube2N (enzyme, UniProt P61088 1-152, looked up)
# chain: MAGLPRRIIKETQRLLAEPVPGIKAEPDESNARYFHVVIAGPQDSPFEGGTFKLELFLPEEYPMAAPKVRFMTKIYHPNVDKLGRICLDILKDKWSPALQIRTVLLSIQALLSAPNPDDPLANDVAEQWKTNEAQAIETARAWTRLYAMNNI
# notes: Ube2N, ubiquitin-conjugating enzyme E2 N; also called wtUbe2N; source: E. coli Rossetta2 (DE3), purified (ion exchange, SEC)
# B2: ZNRF1^RING (residues 166–227) (domain or fragment, UniProt Q8ND25 166-227, looked up)
# chain: SKPRLSYNDDVLTKDAGECVICLEELLQGDTIARLPCLCIYHKSCIDSWFEVNRSCPEHPAD
# notes: ZNRF1, RING E3 ubiquitin ligase, residues 166-227 (RING domain); also called RING domain of ZNRF1; source: E. coli Rossetta2 (DE3), purified (HisTrap, SEC)
# B3: ZNRF1^(CTD, E183A) (domain or fragment, UniProt Q8ND25 139-227, looked up)
# chain: SHSGFKCPICSKSVASDEMEMHFIMCLSKPRLSYNDDVLTKDAGACVICLEELLQGDTIARLPCLCIYHKSCIDSWFEVNRSCPEHPAD
# notes: ZNRF1, RING E3 ubiquitin ligase, residues 139-227 with E183A; also called ZRNF1^CTD,E183A; E183A mutant; source: E. coli Rossetta2 (DE3), purified
# What was measured:
# Details in all cases: both partners purified
# [1] = target: T1, ZNRF1^CTD (C-terminal domain of ZNRF1, …); test: ITC; ZNRF1 construct (10–30 µM) in the cell, E2 in the syringe; 25°C; 20 mM sodium phosphate pH 8.0, 150 mM NaCl; single site model
# [2] = target: B2; test: as above
# ZNRF1^(CTD, E183A) = target: B3; test: as above
# ZNRF1 full-length = target: T2, ZNRF1 full-length; test: as above
# [3] = target: T1, ZNRF1^CTD (C-terminal domain of ZNRF1, …); test: ITC; ZNRF1^CTD in the cell, Ube2N in the syringe; 25°C; Na-phosphate pH 8.0, 450 mM NaCl; single site model
# [4] = target: T1, ZNRF1^CTD (C-terminal domain of ZNRF1, …); test: ITC; ZNRF1^CTD in the cell, Ube2N in the syringe; 25°C; Na-phosphate pH 8.0, 300 mM NaCl; single site model
# Ube2N = target: B1; test: ITC; ZNRF1 construct (10–30 µM) in the cell, E2 in the syringe; 25°C; 20 mM sodium phosphate pH 8.0, 150 mM NaCl; single site model
dH [1] [kcal/mol],stoichiometry N [1],Binder,further results
-10.5,0.915,B1,"dH [2]: -10.9 kcal/mol; stoichiometry N [2]: 0.913; dH (ZNRF1^(CTD, E183A)): -9.42 kcal/mol; stoichiometry N (ZNRF1^(CTD, E183A)): 0.848; Kd (ZNRF1 full-length): 49.5 nM; dH (ZNRF1 full-length): -9.17 kcal/mol; stoichiometry N (ZNRF1 full-length): 0.842; dH [3]: -9.26 kcal/mol; stoichiometry N [3]: 0.96; dH [4]: -9.63 kcal/mol; stoichiometry N [4]: 0.984"
-10.2,1.04,"Ube2N/Ube2V1 complex (complex, Ube2N, ubiquitin-conjugating enzyme E2 N; Ube2V1, ubiquitin-conjugating enzyme E2 variant 1; also called Ube2N/V1; source: E. coli Rossetta2 (DE3), each purified, mixed in stoichiometric amounts, complex isolated by SEC) chain 1: MAGLPRRIIKETQRLLAEPVPGIKAEPDESNARYFHVVIAGPQDSPFEGGTFKLELFLPEEYPMAAPKVRFMTKIYHPNVDKLGRICLDILKDKWSPALQIRTVLLSIQALLSAPNPDDPLANDVAEQWKTNEAQAIETARAWTRLYAMNNI chain 2: not shown",–
-8.38,0.966,"Ube2N^R14D (enzyme, UniProt P61088 1-152, looked up, Ube2N, ubiquitin-conjugating enzyme E2 N, with R14D; source: E. coli Rossetta2 (DE3), purified (ion exchange, SEC)) MAGLPRRIIKETQDLLAEPVPGIKAEPDESNARYFHVVIAGPQDSPFEGGTFKLELFLPEEYPMAAPKVRFMTKIYHPNVDKLGRICLDILKDKWSPALQIRTVLLSIQALLSAPNPDDPLANDVAEQWKTNEAQAIETARAWTRLYAMNNI",–
-9.62,1.05,"Ube2N^A98T (enzyme, UniProt P61088 1-152, looked up, Ube2N, ubiquitin-conjugating enzyme E2 N, with A98T; source: E. coli Rossetta2 (DE3), purified (ion exchange, SEC)) MAGLPRRIIKETQRLLAEPVPGIKAEPDESNARYFHVVIAGPQDSPFEGGTFKLELFLPEEYPMAAPKVRFMTKIYHPNVDKLGRICLDILKDKWSPTLQIRTVLLSIQALLSAPNPDDPLANDVAEQWKTNEAQAIETARAWTRLYAMNNI",–
-8.69,0.958,"Ube2N^R14A (enzyme, UniProt P61088 1-152, looked up, Ube2N, ubiquitin-conjugating enzyme E2 N, with R14A; source: E. coli Rossetta2 (DE3), purified (ion exchange, SEC)) MAGLPRRIIKETQALLAEPVPGIKAEPDESNARYFHVVIAGPQDSPFEGGTFKLELFLPEEYPMAAPKVRFMTKIYHPNVDKLGRICLDILKDKWSPALQIRTVLLSIQALLSAPNPDDPLANDVAEQWKTNEAQAIETARAWTRLYAMNNI",–
-8.54,0.854,"Ube2N^R14E (enzyme, UniProt P61088 1-152, looked up, Ube2N, ubiquitin-conjugating enzyme E2 N, with R14E; source: E. coli Rossetta2 (DE3), purified (ion exchange, SEC)) MAGLPRRIIKETQELLAEPVPGIKAEPDESNARYFHVVIAGPQDSPFEGGTFKLELFLPEEYPMAAPKVRFMTKIYHPNVDKLGRICLDILKDKWSPALQIRTVLLSIQALLSAPNPDDPLANDVAEQWKTNEAQAIETARAWTRLYAMNNI",–
–,–,B2,Kd (Ube2N): 49.4 nM
–,–,B3,Kd (Ube2N): 459 nM
-5.64,0.828,"Ube2N^S96R (enzyme, UniProt P61088 1-152, looked up, Ube2N, ubiquitin-conjugating enzyme E2 N, with S96R; source: E. coli Rossetta2 (DE3), purified (ion exchange, SEC)) MAGLPRRIIKETQRLLAEPVPGIKAEPDESNARYFHVVIAGPQDSPFEGGTFKLELFLPEEYPMAAPKVRFMTKIYHPNVDKLGRICLDILKDKWRPALQIRTVLLSIQALLSAPNPDDPLANDVAEQWKTNEAQAIETARAWTRLYAMNNI",–
